Experimental data published in publication PMC2367712.

Biological target: Lsr2 P103A (Mycobacterium tuberculosis, UniProt P9WIP7 1-112, P101A)
Assay: EMSA

B1: C42 (dsDNA)
DNA 1: AAAAATCTCTAAAAAATCTCTAAAAATCTCTAAAAAATCTCT
DNA 2: AGAGATTTTTTAGAGATTTTTAGAGATTTTTTAGAGATTTTT
**Q.** Does B1 bind?
**A.** binds
